Results published in article PMC9460772 (2022).

Biological target: PPIA (Homo sapiens, UniProt P62937)
Assay: NMR

Kd: 23 µM
B1: PR20 proline-arginine dipeptide repeat (peptide)
chain: PRPRPRPRPRPRPRPRPRPRPRPRPRPRPRPRPRPRPRPR
